Data from the RNAGym collection of RNA variant scans (doi:10.1073/pnas.2313332121).
Fewer inactive variants are shown than the library holds.

B1: TPR 5TU (parent)
chain: GGAUCUUCUCGAUCUAACAAAAAAGACAAAUCUGCCACAAAGCUUGAGAGCAUCUUCGGAUGCAGAGGCGGCAGCCUUCGGUGGCGCGAUAGCGCCAACGUUCUCAACUAUGACACGCAAAACGCGUGCUCCGUUGAAUGGAGUUUAUCAUG

Variants of: B1
Experiment: polymerase ribozyme fitness, log enrichment relative to wild type (log ratio); higher = more active; in vitro selection for triplet polymerase activity
How it was run: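 A heterodimeric triplet polymerase ribozyme had each of its subunits mutagenized by PCR into a library, which was transcribed. One round of in vitro selection, done in triplicate, annealed each library with a biotinylated primer, its partner subunit and triplets, then incubated it frozen at −7 °C before gel excision of extended constructs, streptavidin-bead capture and RT-PCR. Fitness is the logarithm of genotype enrichment relative to wild-type enrichment, based on Illumina sequencing of inputs and outputs and inverse-variance-weighted replicate averages. A base-2 logarithm is used, and genotypes were kept only with ≥10 input reads and ≥1 read per output.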

Variant | polymerase ribozyme fitness (log ratio)
GGAUCGUCUCGAUCUAACAAAAAAGACAAAUCUGCCACAAAGCUUGAGAGCAUUUUCGGAUGCAGAGGCGGCAGCCUUCGAUGGCGCGAUAGCGCCAACGUUCUCAACUAUGACACGCAAAACGCGUGCUCCGUGGAAUGGAGUUUAUCAUG | -3.31
GGAUCGUCUCGAUCUAAGAAAAAAGACAAAUCUGCUACAAAGCUUGAGAGCAUCUUCGGAUGCAGAGGCGGCAGCCUUCGGUGGCGCGAUAGCGCGAGCGUUCUCAACUAUGACACGCAAAACGCGUGCUCCGUUGAAUGGAGUUUAUCAUG | -2.92
GGAUCGUCUCGAUCUAACAAAAAAGACAAAUCUGCCACAAAGCUUGAGAGCAUCUACGGAUGCAGAGGCCGCAGCCUUCGGUGGGGCGAUAGCGCCAACGUUCUCAUCUAUGACACGCAAAACGCGUGCUCCGUUGAAUGGAGGUUAUCAUG | ≤ -4.2
GGAUCGUCUCGAUCUAACAAAAAAGACAAAUCUGCCACAAAGCUAGAGAGCAUCUUUGGAUGCAGACGCGGCAGCCUUCGGUGGCGCGAUAGCGGCAAUGUUCUCAACUAUGACACGCAAAACGCGUGCUCCGUUGAAUGGAGUUUAUCAUG | ≤ -4.2
GGAUCGUCUCGAUGUCACAUUAAAGACAAAUCUGCCACAAAACUUGAGAGCAUCUUCGGAAGCGGAGGCGACAGCCUUCGGUGGUGUGAUAGCGCCAACGUUCUCAACUAUGACACGCAAAACGCGUGUUCCGUUAAAUGGAGUUUAUCAUG | ≤ -4.2
GGAUCUACUCGAUCUAACAAAAAAGACAAAUCUGCCACAAAGCUUGAGAGCAUCUUCGGAUGCAGAGGCGGCAGCCUUCGGUGGCGCGAUAGCGCCAACGUUCUCAACUAUGACACGCAAAACGCGUGCUCCGUUGAAUGGAGUUUAUCAUG | -2.18
GGAUCUACUCGAUCUAACAAAAACGACAAAUCUGCCACAAAGCUUGCGAGCAUCUUCGGAUGCAGAGGCGGCAGCCUUCGGUGGCGCGAUAGCGCCAACGUUCUCAACCAUGACACGCAUAACGCGUGCUCCGUUGAAUGGAGUUUAUCAUG | ≤ -4.2
GGAUCUACUCGAUCUAACAAAGAAGACAAAUCUGCCACAAAGCUUGAGAGCAUCUUCGGAUGCAGAGGCGGCAGCCCUCGGUGGCGCGAUAGCGCCAACGUUCUCAACUAUGACACGCAAAACUCGUGCUCAGUUGAAUGGAGUUUAUCAUG | ≤ -4.2
GGAUCUACUCGAUCUAACAAAAAGGACAAAUAUGCCACAAAGCUUGAGAGCAUCUUCGGAUGCAGAGGCGGCAGCCUUCGGUGGCGCCAUAGCGCCAAGGUUCGCAACUAUGACACGCAAAACGCGUGCUCCGUUGAAUCGAGUUUAUCAUG | -4.07
GGAUCGUCUCGAUCUAACAAAAAAGACAAAUCUGCCACAAAGCUUGAGAGCAUCUUCGGAUGCAGAGGCGGCAGCCUUCGGUGGCGCGAUAGCGCCAACGUUCUCAACUAUGACACGCAAAACGCGUGCUCCGUUGAACGGAGUUUAUCAUG | -3.69
GGAUCUACUCGAUCUAACUAAAAAGACAAAUCUGCCACAAAGCUUGAGUGCAUCUUCGGAUGCAGAGGCGGCAGCCUUCGGUGGCGCUAUAGCGCCAACUUUCUCAACUAUGACACGCAAAACGCGUGCUCCGUUGAAUGGAGUUUAUCAUG | ≤ -4.2
GGAUCUACUCGAUCUAACAACAAAGACAAAUCUGCCACAAAGCUUGAGAGCAGCUACCGUUGCAGAGGCGGCAGACUUCGGUGGCGCGAUAGCGCCAACGUUCUCAACUAUGACACGCAAAACGCGUGCUCCGUUGAAUGGAGUUUAUCAUG | ≤ -4.2
GGAUCGUCUCGAUCUAACAAAAAAGACAAAUCUGUCACAAAGCUUGAGAGCAUCUUCGGAUGCAGAGGCGGCAGCAUUCGGUGGCGUGAUAGCGCCAACGUUCUCAACUAUGACACGCAAAACGCGUGCUCCGUUGAAUGGAGUUUAUCAUG | -2.63
GGAUCUACUCGAUCUAACAAACAAGACCAAUCUGCCACAAAGCUUGAGAGCAUCUUCGGCUGCAGAGGCGGCAGCCUUCGGUGGCGCGAUAACGCCAACGUUCUCAACUAUGACACGCAAAACGCGUGCUCCGUUGAAUGGACUUUGUCAUG | ≤ -4.2
GGAUCGUCUCGAUCUAACAAAAAAGACAAAUCUGCCAUAAAGCAUGAGAGCAUCUUCGGAUGCAGAGGCGGCAGCCUUCGCUGGCGCGAUAGCGCCAACGUUCUCAACUAUGACACGCACAACGCGUGCUCCGUUGAAUUGAGUUUAUCAUG | ≤ -4.2
GGAUCGUCUCGAGUUAACAAAAACGACAAAUCUGCCACAAAGCUUGAGAGCAUCUUCGGAUGCAGAGGCGGCAGCAUUCGUUGGCGAGAUAGCGCCAACGUUCUCAACUAUGACACGCAAAACGCGUGCUCCGUUGAAUGGAGUUUAUCAUG | ≤ -4.2
GGAUCGUCUCGAUCUAACAAAAAAGACAAAUCCGCCACAAAGCUUGAGAGCAUCUUCGGAUGCAGAGGCGGCAGCCCUCCGUGGGACGAUAGCGCCAACGUUCUCAACUAUUACACGCAGAACGCGUGCUCCGUUGAAUGGAGUUUAUCACG | ≤ -4.2
GGAUCGUCUCGAUCUAACAAAAAAGACAAACCUGCCACAAAGCUUGAGAGCAUCAUCGGAUGCAGAGGCGGCAGCCUUCGGUGGCGCGAUAGCGUCAGCGUUCUCAACUAUGACACGCAAAACGCGUGCUCCGUUGAAUGCAGUUUAUCAUG | -1.61
GGAUCGUCUCGAUCUAACAAAAAAGACAAAUCUGCCACAAAGCUUGAGAUCAUCUUCGGAUGCAGAGGCGGCAGCCUUCGGUGGUGCGAUAGCGCCAACGUUCUCAACUAUGACAUGCAAAACGCGUGCUCCGUUGAAUGGAGUUUAUCAUU | -3.7
